From the DeepSol protein solubility set

Test: soluble on expression in E. coli; label from the status in PepcDB or PDB records

Sequence | soluble on expression in E. coli
MGSDKIHHHHHHLTQPITDWYKSGTGSTPVLKFQFATEKLLRPSGGGPSRRGTPIREIPMNLHKLLSDREQDGRPIRVGLIGAGRYGTMYLAQANNIPGIHVVAIADINVKRAEGAFELVGWPKNQIAPDIATALRDRSTTIVANADELFDVDIDVIVEATGNPIVGVKHALRAIETKKHIIMVTVEADALAGPALARRAEAAGVVYSMAYGDQPALIMELVDWARTSGFDVVCAGKGAKFLEHYHEMNPDNVWENWEFSKELTDSGQLNPNMHTSFRDGTKASIEMAAVANGAGLVPSDTGLTFTPGDVEEIATICRPADAGGVLAHEGTVDVMSSVKRDGTWIPHNTQEGVFVVVKATNAYVSGCFTEYPWHPDPTGQYAALYRPYHYVGLELNMSIANAALRGISTGSPIGFFGDVVATAKKNLKAGEFLDGEGGYTVWGQLVSAKHSVATGALPVALAHHVELRNDVAKGGIVGWDDVIMDDSLSQALEVRRETEALVAEFALNA | not soluble
MGSDKIHHHHHHMYNVQTYKEKISRFEEVCFNWELKRASIVLNKRFSSYNSSAKVLLDAGFSLYAAKIEVCRELNNGEELERQYTYRSIAEGTLSEKDFKYIWEQCMSGSGNQTSILTIDEHFYSVQTELDKGWEKSCIVFYDKNEPIGMSIPHIETGTESEGRLFYFGVMLYYRGKGIASRLHLQSLHMLKEMGATYYIGSTHTSNEKMQRIFWRNNCSLKTEIELYYKIFNEG | not soluble
SAVDRDIFGISGPTYLNPVNWNCEHNRRSVAACLVQAVYVLERDRQLGRQSVEALGPPWWEFFHFELIRKLVDDADLSIFGAIFEFNPPSSKESSADNAPRFVIAFRGTITEKETISRDIALDLHLVQNGLHRTSRFTIAMQAVQNVASVFPGSNIWLAGHSLGAGMAILTGRNMVKKGVLLESYLFNPPFVAAPIERISDERVKHGFRIARSVITAGLAIAMKGKGEGSSQRSVAEDSFHILSSWTPYLFVNPGDHICSEYIGYFQHRKNMEDLGAGFIEKLATQNSIGDLFYKALGWESEPLHLLPSADLIVNVSPSPDFKYAHGISQWWQPELNLQCSKYRYSVGA | soluble
MKIKEMVTSEMPRERLLSHGAKSLSNTELLAILINTGRKGFSSIDISNELLKSASNLNELKKSSINDLIKVKGIGLQKAITLKAAFELGERMGRRAENNRIKITQPSDVADYMIPTMKDLTQEHFVILLLNSKNVVIKETCVFKGTLNSSIVHPREIFSIAVRENANAIIAVHNHPSGDVLTIV | not soluble
GPGSMERVTYARTGALRSTYAGLPVTKERLVTAAPAKWFPLLTTVPQRVLKSISDSDGVDGSLLGFLPIAFVFEELRKHLSDFTQHAAFLRAVLQWYHQTAGDTLESEIATDKVEIFQPYLPAYRLRVLKEGETVATFNDISRRAVTLMGKDRGINDIPLDHPSCSAQHAALEVNFVHRNSEPFQQRLHTLMQEEYRNINWSSPDEVGKLCAHALQLMREFGGDEDMWLMELQVVDLGSTNGTNLNGELLRPLERATVIEGDVLTFGYSTRKYLIVRA | soluble
MWYGLGLAFLGGIFRIFPFDMEHTITRQIFCPWLFAFSMTRKQFQGRKPYNYLASFLLFQCRLKESFHGQLVKPIVSWNLWTHRYHNGCFR | not soluble
MSLEPATAPRPDMAPELTPEEEQATKQFLEEINKWTVQYNVSPLSWNVAVKFLMARKFDVLRAVELFHCYRETRRKEGIVKLKPHEEPLRSEILSGKFTILNVRDPTGASIALFTARLHHPHKSAQHVVLQALFYLLDRAVDSFETQRNGLVFIYDMCGSNYANFELDLGKKVLNLLKGAFPARLKKVLIVGAPIWFRVPYSIISLLLKDKVRERIQILKTSEVTQHLPRECLPENLGGYVKIDLATWNFQFLPQVNGHPDPFDEIILSSLPPAEGHHHHHH | soluble
NEYLNNVKSKYEVQKQRIQIQNDTRYMNEIEAHYNELRRFRHDYQNMLISIDEYLKTDDLEGLQEYYQKNLAPVSNRVLKEKYNLEDLSRVKVKSIKSILFSKLSYAQSQEIEVHFDLKEPLIDITVNELDLDIALGIMLDNAIEASVGHADGEIMSAIFIEKNSTVFLIQNNVFEQLPPLWKLKEAGYSTKGKNRGIGLNSLSKIVNRNENMILETRVLGAVFLQRLTVKRVSQND | not soluble
AVANILNRDYNRAQEILNGIKNPDATTYYLMAVVAARTNNLDVVINSLRESISLDSSMMKKAATDLEFAKYANDGGFKSLLRH | not soluble
MKIVLAYSGGLDTSIILKWLKETYRAEVIAFTADIGQGEEVEEAREKALRTGASKAIALDLKEEFVRDFVFPMMRAGAVYEGYYLLGTSIARPLIAKHLVRIAEEEGAEAIAHGATGKGNDQVRFELTAYALKPDIKVIAPWREWSFQGRKEMIAYAEAHGIPVPVTQEKPYSMDANLLHISYEGGVLEDPWAEPPKGMFRMTQDPEEAPDAPEYVEVEFFEGDPVAVNGERLSPAALLQRLNEIGGRHGVGRVDIVENRFVGMKSRGVYETPGGTILYHARRAVESLTLDREVLHQRDMLSPKYAELVYYGFWYAPEREALQAYFDHVARSVTGVARLKLYKGNVYVVGRKAPKSLYRQDLVSFDEAGGYDQKDAEGFIKIQALRLRVRALVEREGHGA | soluble
MSMSQSRAVQRSSSPNEDRGENQLVVYDLKGNDDTEEEVLPVQSQPLSSRTQCPSIGAFTVQCASCFKWRLMPSMQKYEEIREQLLENPFFCDTAREWKPDISCDVPADIYQDGTRLWAIDKPNISRPPAGWQRLLRIRGEGGTRFADVYYVAPSGKKLRSTVEVQKYLNDNSEYIGEGVKLSQFSFQIPKPLQDDYVRKRPARLLDSIDNTNTPVAKEANPLAWISPDDHISLQLGTPTESGLNNSHYQPSKKKKTSTLSIFGSNDELADR | soluble
SPGRSSTSSGSTRYISFSGIESALSSLKNFQSCISSGMDTVSSVALDLVETQTEVSSEYSMDKAMVEFAKMDRELSHYVKAVQSTINHVKEERPEKVPDLKLLVEKKFLALQDKNSDADFKENEKFVQFKQQLRELKKQYGIHADRENDLTEGVDEDMIVTQSQTNFICPITQLEMKKPVKNKMCGHTYEEEAIVRMIESKHKRKKKACCPKIGCSHTDMRMSDLIPDEALRRAIESHNKKKKRHSE | soluble
MSDPYMPLTSVRSGAGFEAAKGVHGLTVQIANVYFIQLPSEPHSFVLIDAGMPQSAGVIVNEAKQRFGEGFQLKAIILTHGHFDHIGAIEEILEHWDVPVYIHSREMPYVTGKEDYPPARPDSKSGLVAKLSPLFPRHSIDISSHVQALPEDGSVPFLDEWMWIATPGHTPGHISLFRDDGRVLVAGDAVITVEQEKMADVLIQKQELHGPPAYFTPDTETAAESILKLAGLEPEALLTGHGIPMTGKNFRSDLTELANRLSSILEHHHHHH | soluble
MGHHHHHHSHMSNTDASGEKRVTGTSERREQIIQRLRQQGSVQVNDLSALYGVSTVTIRNDLAFLEKQGIAVRAYGGALICDSTTPSVEPSVEDKSALNTAMKRSVAKAAVELIQPGHRVILDSGTTTFEIARLMRKYTDVIAMTNGMNVANALLEAEGVELLMTGGHLRRQSQSFYGDQAEQSLQNYHFDMLFLGVDAIDLERGVSTHNEDEARLSRRMCEVAERIIVVTDSSKFNRSSLHKIIDTQRIDMIIVDEGIPADSLEGLRKAGVEVILVGDHASSL | soluble
MQFPVLQESSQSALPQLTGILSSLIVTEEVKAAETDAIMAANTGKSEIVQVTYKLFGLIPFKSSAIQVMPQLKLLPGGQSIGVSLQAKGVMVVGQAAVQNQEGKLVYPAKEAGIEVGDIILKIDGREMNSDQDVANAIHRAGEKQGFSEILLNHNGQTMQKRVSTVYCPETNRHRVGLYVRNEAAGVGTLTFYDPTNHKYGALGHVINDVDTNQKIEILNGNVVASTIYAIEKGKRGHPGEKIGSFVNQSKFSGNIEKNTVSGIFGSLEGEIKNPYFQEPITVGWESEIKEGPAKIYTVLEGERIEEYDVQIERIMHNRTDSKNMVIKVTDPELVEKTGGIIQGMSGSPIVQDGKIIGAVTHVFVNDASRGYGVFIQNMLKDADIIDKKEVALEHHHHHH | not soluble
MGSDKIHHHHHHENLYFQGMRYLSKDILEEVITQRPSDSYKSNFGRVVLIGGNRQYGGAIIMSTEACINSGAGLTTVITDVKNHGPLHARCPEAMVVGFEETVLLTNVVEQADVILIGPGLGLDATAQQILKMVLAQHQKQQWLIIDGSAITLFSQGNFSLTYPEKVVFTPHQMEWQRLSHLPIEQQTLANNQRQQAKLGSTIVLKSHRTTIFHAGEPFQNTGGNPGMATGGTGDTLAGIIAGFLAQFKPTIETIAGAVYLHSLIGDDLAKTDYVVLPTKISQALPTYMKKYAQPHTAPDSELLEQKRSR | soluble
MYKAFYGLSDNPFSIAPNPHYLFLSDRHREALAHLTYGLGETGGFVLLTGEVGTGKTTVSRCLLGQLPDNTDTAFILNPSLTELELLATLCDELKISYGENPTLKQLTDHLSRFLLANHEKGRKTVLIIDEAQHLRAEVLEQLRLLTNLETDTKKLLQVILIGQPELQLLLKRQELRQLAQRITARYHLLPLNEDEITLYVLHRLQVAGRFEPLFTRKAIKVLHKYSGGIPRLINLLCERALMAGYAQSKVPIDHHMVRQAAAEVLGEEKPSQNKFLWPSAIAAALVLTFGVSYWLFTDHAVVATVANENVTQPKQTVIAENAVQQSQTALTNTAPAITLAQTPAAPDPNLRVLQEAIKQSRQIDTAFAGLFNVWGKVPFKGLTACQSAFEQGLSCYQQQGNWMSLTRLNYPAVVYLVDDNQQDFYGAVIAVDGEQLLMQLGEQQLWVERTWFNQHFSGTFEILWQAPNLPMMEISQKSSPGQLQWLENALAHVAKRPSRRVSQFDLKLENDLKAFQSQHGLKADGIAGNQTLVRLNLYLSDQGPRLTDNGAQS | not soluble
MGSDKIHHHHHHMNFNSDLLNLNSKSPAFSITIEGKDVTTVMDARLMSLTLTDNRGFEADQLDLELDDADGQIVLPRRGAVIHLALGWKGQPLFPKGAFTVDEIEHSGAPDRLTIRARSADFRETLNTRREKSWHQTTVGEVVKEIAARHNLKVALGQDLTDKALDHMDQTNESDASFLMKLARQYGAIASVKDGNLLFIRQGQGRTASGKPLPVITITRKAGDGHRFTLADRGAYTGVIASWLHTREPRKKETTSVKRRRKKATTPKEPEAKQGDYLVGTDENVLVLNRTYANRSNAERAAKMQWERLQRGVASFSLQLAEGRADLYTEMPVKVTGFKQPIDDAEWTITTLTHSVSPDNGFTTSMELEVKIDDLEIE | not soluble
MGSDKIHHHHHHMNIEDTLLKQDVWRFIDNTTINPAFDAIQSFATDDTLCRSVGARMAPSTVRGWVHEKTVSLGIQDSKLPDIDKGIAFLQEQGYRVVVRNSGGLAVVLDSGVLNLSMVLPDAERGIAIERGYETMFTLIKDMFVDCNEVIEAKEIEDSYCPGSYDLSIQGEKFAGISQRRMAKGVAVQIYLAIDGDQTTRSELIRDFYTISGKAKQTKYTFPDVNPNVMGSLSDLMKNDISLNGTLVRLFNSLRHYAGELVSGTLTSEELDLFPAYYERLIARNDKVLT | not soluble
MGSDKIHHHHHHMASKATSIDIAYRAGVSQSTVSRALRNSPLVNLETRQRIQAIAKELNYKVDKNASNLRMQNSHTLALLICEDPTNDESMINPFFLSMLGSITRATARQGYDLLVSFQQLSTDWHADYEDSNKADGIILLGYGDYMDYAHKLDKLIEKNTHFVIWGAEHNNKAVLSIGCDNHQGGFVATEHLLGLGHKHIAFLGDSSSRSPEFRDRYLGHVDALQSTGIEADTQLQHDAINTEASGYHAANVLLDSGVTFDAIFTASDLIAIGAIRALKKRGVLVPEQVAVVGYDDIPVASFANPALTTIKQDTQFAGEILVESVLKLIRGQEVSQRLIKTHLVVRSSCGANVEDN | not soluble
GSHMKHTELRAAVLDALEKHDTGATFFDGRPAVFDEADFPAVAVYLTGAEYTGEELDSDTWQAELHIEVFLPAQVPDSELDAWMESRIYPVMSDIPALSDLITSMVASGYDYRRDDDAGLWSSADLTYVITYEM | soluble
LGFNLKEAASIGIIGGADGPTTIYLTTKLAPHILSATAVAAYSYMSLVPLIQPPVIKALTTPEERRIRMEQLRPVSKREK | not soluble
